Data on six substances can be found in paper PMC2174220.

One may read the stoichiometry N as the number of molecules, sites or subunits per partner or assembly.

Test [1] concerns the target p62 subunit of dynactin (bovine). Description: ion exchange chromatography.
The target in test [2] is p150^Glued subunit of dynactin (bovine). Description: co-sedimentation.
For test [3], the target named is dynamitin (p50) subunit of dynactin, endogenous bovine (bovine) (UniProt Q3ZCF0). The experiment in a line: co-sedimentation.

p62 subunit of dynactin (bovine), sequence (Q9QUR2 whole entry): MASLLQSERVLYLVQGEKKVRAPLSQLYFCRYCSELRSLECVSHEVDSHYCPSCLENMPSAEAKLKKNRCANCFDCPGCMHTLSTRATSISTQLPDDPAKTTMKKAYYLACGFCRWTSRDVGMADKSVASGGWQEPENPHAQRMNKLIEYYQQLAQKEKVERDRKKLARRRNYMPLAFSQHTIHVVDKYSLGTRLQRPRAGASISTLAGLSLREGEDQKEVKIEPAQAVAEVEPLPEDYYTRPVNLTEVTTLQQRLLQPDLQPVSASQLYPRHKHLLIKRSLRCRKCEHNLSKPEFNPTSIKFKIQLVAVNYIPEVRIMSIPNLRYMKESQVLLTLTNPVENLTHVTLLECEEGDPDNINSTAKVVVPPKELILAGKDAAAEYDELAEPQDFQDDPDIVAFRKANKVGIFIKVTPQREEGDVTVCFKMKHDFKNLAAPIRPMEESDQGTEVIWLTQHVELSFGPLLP

For the substance “p25 subunit of dynactin (from UniProt Q9QZB9 1-182) (natural protein)”, the stoichiometry N in test [1] (scale: p25 per 1 p62) came out at 1.

In test [1] (scale: Arp11 per 1 p62), “Arp11, novel actin-related protein of the dynactin pointed-end complex (from UniProt Q3ZBD2 1-417) (natural protein)” yielded a stoichiometry N of 1.

As to “dynamitin (p50) subunit of dynactin, endogenous bovine (from UniProt Q3ZCF0 1-403) (natural protein)”, the stoichiometry N in test [2] (scale: dynamitin per 2 p150) was 2.

As for “Arp1, actin-related protein of the dynactin minifilament (natural protein)”, the stoichiometry N (Arp1 per dynamitin) in test [3] was found to be 1.97.

With “p24 subunit of dynactin (from UniProt Q0P5A1 1-186) (natural protein)”, the stoichiometry N (p24 per 2 p150^Glued) in test [2] was 2. Also, the stoichiometry N in test [2] (scale: p24 per 2 p150) is 1.

For the substance “p27 subunit of dynactin (from UniProt Q148G7 1-190) (natural protein)”, the stoichiometry N in test [1] (scale: p27 per 1 p62) was determined as 1.
